One molecule from patent publication US20190367605A1 (AstraZeneca / MedImmune, published 2019) can be followed below.

Assay [1] addresses T1, human ASCT2 (system ASC amino acid transporter 2, SLC1A5) (human, UniProt Q15758 1-541).
T1 construct: whole, on cells; Present on transfected 293F or CHOK1 cells, or endogenously on human cancer cell lines (FaDu, SSC15, WiDr, Cal27, SW48, SKMEL-2); also called HuASCT2
T1 sequence (looked up): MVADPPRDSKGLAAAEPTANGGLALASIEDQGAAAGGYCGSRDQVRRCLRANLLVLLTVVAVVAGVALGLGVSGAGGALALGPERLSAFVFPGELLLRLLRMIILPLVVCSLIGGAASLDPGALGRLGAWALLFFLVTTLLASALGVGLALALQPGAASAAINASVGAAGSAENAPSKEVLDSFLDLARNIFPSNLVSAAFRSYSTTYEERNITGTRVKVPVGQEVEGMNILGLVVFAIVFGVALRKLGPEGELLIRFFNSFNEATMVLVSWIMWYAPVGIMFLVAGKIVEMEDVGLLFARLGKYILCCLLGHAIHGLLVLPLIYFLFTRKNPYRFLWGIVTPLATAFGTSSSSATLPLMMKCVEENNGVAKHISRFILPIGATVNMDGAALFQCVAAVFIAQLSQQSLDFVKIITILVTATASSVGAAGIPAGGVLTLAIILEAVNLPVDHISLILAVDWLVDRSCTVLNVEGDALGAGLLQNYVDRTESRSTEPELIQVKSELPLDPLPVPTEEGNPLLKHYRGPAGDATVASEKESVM
The assay is described as follows: flow cytometry, titration of fluorophore-labelled antibody on FaDu cells. As to the method:
(§1) Human, cynomolgous monkey, and CHO-derived cell lines expressing ASCT2 were utilized to assessed binding affinity and cross reactivity of ASCT2-specific antibodies. Apparent affinities were measured by titrating fluorophore labeled antibodies.
(§2) Results for human cancer cell line Ca127 are shown in FIG. 6A; results for human cancer cell line FaDu are shown in FIG. 6B; results for human cancer cell line SSC15 are shown in FIG. 6C; results for human cancer cell line WiDr are shown in FIG. 6D; results for CHOK1 cells stably expressing human ASCT2 are shown in FIG. 6E; results for CHOK1 cells stably expressing cyno ASCT2 are shown in FIG. 6F); results for cyno cancer cell line CynoMK1 are shown in FIG. 6G; and results for mock transfected CHOK1 cells are shown in FIG. 6H.
In general terms: Flow cytometry measures light scatter and fluorescence of single cells or particles in a stream.

Assay [2] has as its target T1, human ASCT2 (system ASC amino acid …). The assay is described as follows: flow cytometry, titration of fluorophore-labelled antibody on WiDr cells. Here is the method: as §1, §2
For assay [3] the target is unchanged. The assay is described as follows: flow cytometry, titration of fluorophore-labelled antibody on Cal27 cells. Here is the method:
as §1, §2

Assay [4] has the same target. The assay is described as follows: flow cytometry, titration of fluorophore-labelled antibody on SSC15 cells. Here is the method:
as §1, §2

The next assay deals with T2, ASCT1 (SLC1A4) (human, UniProt P43007 1-532).
T2 construct: whole, on cells; also called ASC transporter 1; human ASCT1
T2 sequence (looked up): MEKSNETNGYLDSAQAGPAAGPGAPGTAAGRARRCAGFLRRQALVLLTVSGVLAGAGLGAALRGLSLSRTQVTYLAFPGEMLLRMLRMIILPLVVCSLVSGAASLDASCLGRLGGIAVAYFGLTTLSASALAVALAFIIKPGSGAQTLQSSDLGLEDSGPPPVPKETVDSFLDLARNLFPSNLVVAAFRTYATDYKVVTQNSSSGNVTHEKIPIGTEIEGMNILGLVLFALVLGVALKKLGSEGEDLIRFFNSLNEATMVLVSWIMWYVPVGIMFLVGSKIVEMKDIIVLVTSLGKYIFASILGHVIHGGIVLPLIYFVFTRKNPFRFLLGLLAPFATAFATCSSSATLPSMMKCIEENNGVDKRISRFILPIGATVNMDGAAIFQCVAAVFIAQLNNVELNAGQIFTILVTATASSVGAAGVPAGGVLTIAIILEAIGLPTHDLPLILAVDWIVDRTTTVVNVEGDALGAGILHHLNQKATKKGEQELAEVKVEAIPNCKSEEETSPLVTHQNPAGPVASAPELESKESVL
The assay is described as follows: flow cytometry on SKMEL-2 cells after shRNA knockdown of ASCT1 (binding not ablated).

The target of assay [5] is T3, cynomolgus monkey ASCT2 (cynomolgus monkey (Macaca fascicularis), UniProt G7PXZ3 1-542).
T3 construct: whole, on cells; Present on stably transfected CHOK1 cells or endogenously on the cyno cell line CynoMK1; also called cyno ASCT2; CynoASCT2
T3 sequence: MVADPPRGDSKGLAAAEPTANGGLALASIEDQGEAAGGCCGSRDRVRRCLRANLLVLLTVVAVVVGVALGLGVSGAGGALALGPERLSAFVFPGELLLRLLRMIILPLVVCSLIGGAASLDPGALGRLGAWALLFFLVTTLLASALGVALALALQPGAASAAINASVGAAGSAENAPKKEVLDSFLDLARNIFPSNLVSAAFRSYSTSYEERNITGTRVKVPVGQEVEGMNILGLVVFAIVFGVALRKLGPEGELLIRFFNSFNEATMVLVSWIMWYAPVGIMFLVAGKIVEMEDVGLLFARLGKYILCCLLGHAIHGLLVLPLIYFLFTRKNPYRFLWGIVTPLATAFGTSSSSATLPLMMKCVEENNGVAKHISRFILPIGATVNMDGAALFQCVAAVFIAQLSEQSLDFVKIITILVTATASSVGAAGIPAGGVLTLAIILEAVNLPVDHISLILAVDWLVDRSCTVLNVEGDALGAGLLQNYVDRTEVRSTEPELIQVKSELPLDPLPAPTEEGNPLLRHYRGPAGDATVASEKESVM
The assay is described as follows: flow cytometry, titration of fluorophore-labelled antibody on cyno cell line Cyno MK1. As to the method: as §1, §2

The target in assay [6] is T3, cynomolgus monkey ASCT2. The assay is described as follows: flow cytometry, titration of fluorophore-labelled antibody on CHOK1 cells stably expressing cyno ASCT2. Here is the method: as §1, §2
For assay [7], the target named is T1, human ASCT2 (system ASC amino acid …). The assay is described as follows: flow cytometry, titration of fluorophore-labelled antibody on CHOK1 cells stably expressing human ASCT2. As to the method:
as §1, §2

B1: anti-ASCT2 antibody 17c10 (original, non-germlined, parental) (antibody, V domains shown)
VH: QVQLQQWGAGLLKPSETLSLTCAVYGGSFSGYYWSWIRQPPGKGLEWIGEIHHSGGANYNPSLKSRVTISVDTSKNQFSLKLTSVTAADTAVYYCARGQGKNWHYDYFDYWGQGTLVTVSS
VL: DIQMTQSPSTLSTSVGDRVTLTCRASQSIRSWLAWYQQNPGKAPKLLIYKASILKIGVPSRFSGSGSGTDFTLTITSLQPDDFATYYCQQYYSYSRTFGQGTKVEIK
notes: also called 17c10 parental antibody; ASCT2 mAb 17c10
The EC50 is the concentration needed to bring the measured effect to its halfway point. For the molecule B1, the EC50 came out at 3.8 nM in assay [1]; 7 nM in assay [2]; 2.8 nM in assay [3]; 3.6 nM in assay [4]; 6.7 nM with cynomolgus monkey ASCT2 [5]; 9.6 nM in the assay with cynomolgus monkey ASCT2 [6]. In addition, the 50% effective concentration (EC50) in assay [7] was 8.6 nM. Also, in the assay with ASCT1 (SLC1A4), the binding result is “no binding”.
